Results as given in publication PMC11509546, “The Antioxidant Effects of Trypsin-Hydrolysate Derived from Abalone Viscera and Fishery By-Products, and the Angiotensin-I Converting Enzyme (ACE) Inhibitory Activity of Its Purified Bioactive Peptides” (Marine Drugs, 2024).
Where a SMILES comes first, the peptide text is derived from it.

B1: QFPVGR (peptide)
peptide: QFPVGR
B2: LGPY (peptide)
peptide: LGPY
B3: LGEW (peptide)
peptide: LGEW
B4: QLQFPVGR (peptide)
peptide: QLQFPVGR
B5: NLGEW (peptide)
peptide: NLGEW
B6: NYER (peptide)
peptide: NYER
B7: VTPGLQY (peptide)
peptide: VTPGLQY

Molecular target: Angiotensin-I converting enzyme (UniProt P12821)
Sequence (P12821 30-1256): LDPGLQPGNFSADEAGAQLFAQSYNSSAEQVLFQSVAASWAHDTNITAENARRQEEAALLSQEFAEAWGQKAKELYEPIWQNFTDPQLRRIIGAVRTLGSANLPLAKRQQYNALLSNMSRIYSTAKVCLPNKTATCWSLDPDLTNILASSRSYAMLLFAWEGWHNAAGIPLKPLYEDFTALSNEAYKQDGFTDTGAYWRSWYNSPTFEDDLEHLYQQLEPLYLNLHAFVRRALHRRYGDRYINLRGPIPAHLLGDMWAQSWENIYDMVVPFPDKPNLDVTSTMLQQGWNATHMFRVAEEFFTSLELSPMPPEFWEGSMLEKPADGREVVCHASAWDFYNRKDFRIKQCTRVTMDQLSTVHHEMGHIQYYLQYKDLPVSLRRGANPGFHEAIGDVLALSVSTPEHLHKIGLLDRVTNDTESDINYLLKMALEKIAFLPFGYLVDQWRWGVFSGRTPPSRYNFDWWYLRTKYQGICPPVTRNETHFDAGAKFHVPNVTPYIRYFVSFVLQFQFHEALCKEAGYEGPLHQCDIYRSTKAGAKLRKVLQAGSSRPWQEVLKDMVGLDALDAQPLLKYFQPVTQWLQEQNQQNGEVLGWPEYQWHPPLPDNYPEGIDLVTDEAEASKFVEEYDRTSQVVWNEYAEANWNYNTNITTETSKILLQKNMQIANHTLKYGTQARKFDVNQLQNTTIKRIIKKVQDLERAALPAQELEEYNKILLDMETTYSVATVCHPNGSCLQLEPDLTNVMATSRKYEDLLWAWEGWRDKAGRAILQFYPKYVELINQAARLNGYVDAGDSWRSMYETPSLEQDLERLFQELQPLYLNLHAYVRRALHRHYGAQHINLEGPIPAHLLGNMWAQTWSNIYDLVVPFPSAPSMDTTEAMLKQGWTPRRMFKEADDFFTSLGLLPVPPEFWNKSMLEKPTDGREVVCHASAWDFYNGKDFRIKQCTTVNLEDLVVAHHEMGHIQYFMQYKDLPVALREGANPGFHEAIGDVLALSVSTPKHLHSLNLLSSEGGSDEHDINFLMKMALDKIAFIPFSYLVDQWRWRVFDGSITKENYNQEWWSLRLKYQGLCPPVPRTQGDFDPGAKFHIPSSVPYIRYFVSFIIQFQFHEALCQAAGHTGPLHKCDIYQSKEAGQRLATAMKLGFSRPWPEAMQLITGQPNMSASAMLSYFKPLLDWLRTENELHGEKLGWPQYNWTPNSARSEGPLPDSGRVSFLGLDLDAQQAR
Test: not given
Settings: not given

ACE inhibitory activity IC50 (ACE kit-WST, colorimetric enzyme activity assay) | Molecule
> 1000 µg/mL | LDW (peptide)
104 µg/mL | VAR (peptide)
23 µg/mL | B1
> 1000 µg/mL | B2
165 µg/mL | B3
4 µg/mL | B4
146 µg/mL | B5
107 µg/mL | B6
23 µg/mL | B7

Molecular target: T1, Angiotensin-I converting enzyme (ACE) (Homo sapiens, UniProt P12821)
T1 construct: purchased Dojindo Inc., Kumamoto, Japan ACE kit-WST
T1 sequence (P12821 30-1306, species assumed): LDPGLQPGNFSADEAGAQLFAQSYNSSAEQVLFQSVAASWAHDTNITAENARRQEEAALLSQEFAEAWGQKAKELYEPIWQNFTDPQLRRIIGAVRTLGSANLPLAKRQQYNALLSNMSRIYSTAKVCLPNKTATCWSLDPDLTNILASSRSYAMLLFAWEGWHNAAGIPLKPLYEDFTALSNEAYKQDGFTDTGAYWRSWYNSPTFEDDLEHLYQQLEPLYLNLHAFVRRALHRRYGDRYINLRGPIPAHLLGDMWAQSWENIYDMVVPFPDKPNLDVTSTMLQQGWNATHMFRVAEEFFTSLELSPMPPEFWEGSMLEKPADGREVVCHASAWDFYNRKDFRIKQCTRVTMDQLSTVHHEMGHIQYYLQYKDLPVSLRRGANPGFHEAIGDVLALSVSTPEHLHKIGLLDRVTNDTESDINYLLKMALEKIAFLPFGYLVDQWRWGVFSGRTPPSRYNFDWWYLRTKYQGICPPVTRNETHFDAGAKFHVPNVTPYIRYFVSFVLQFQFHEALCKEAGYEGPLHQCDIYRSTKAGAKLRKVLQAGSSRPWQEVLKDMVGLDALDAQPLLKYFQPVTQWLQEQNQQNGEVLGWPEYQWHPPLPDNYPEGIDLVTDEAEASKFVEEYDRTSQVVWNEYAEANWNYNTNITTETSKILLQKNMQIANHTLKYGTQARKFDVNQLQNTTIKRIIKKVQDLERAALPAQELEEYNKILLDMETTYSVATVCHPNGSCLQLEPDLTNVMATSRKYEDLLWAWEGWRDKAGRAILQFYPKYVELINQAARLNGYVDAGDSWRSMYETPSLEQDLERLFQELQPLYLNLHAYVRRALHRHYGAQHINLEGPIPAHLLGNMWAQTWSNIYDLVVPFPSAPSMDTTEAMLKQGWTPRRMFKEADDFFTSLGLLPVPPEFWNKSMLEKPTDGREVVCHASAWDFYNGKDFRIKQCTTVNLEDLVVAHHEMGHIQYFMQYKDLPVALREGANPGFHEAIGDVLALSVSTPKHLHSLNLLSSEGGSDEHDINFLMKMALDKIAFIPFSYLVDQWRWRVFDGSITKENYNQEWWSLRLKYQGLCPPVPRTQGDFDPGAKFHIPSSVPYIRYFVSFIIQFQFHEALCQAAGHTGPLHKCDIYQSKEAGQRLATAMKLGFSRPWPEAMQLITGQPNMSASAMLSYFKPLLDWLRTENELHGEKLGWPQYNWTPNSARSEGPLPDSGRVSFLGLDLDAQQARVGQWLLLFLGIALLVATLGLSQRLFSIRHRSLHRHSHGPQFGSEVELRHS
Test: ACE inhibition activity assay (ACE kit-WST, colorimetric)
Format: biochemical
Settings: 3-hydroxybutyryl-Gly-Gly-Gly substrate, mean ± SD of triplicate, read-out: ACE Inhibitory Activity IC50 Value (converted)
Procedure: ACE inhibitory activity was determined as previously described. Inhibition was measured using an ACE kit-WST (Dojindo Inc., Kumamoto, Japan), a colorimetric method. Briefly, the inhibitory effect was determined using enzyme activity and the amount of 3-hydroxybutyric acid made from 3-hydroxybutyryl-Gly-Gly-Gly.

IC50 | Molecule
> 2310 µM | CC(C)C[C@H](N)C(=O)N[C@@H](CC(=O)O)C(=O)N[C@@H](Cc1c[nH]c2ccccc12)C(=O)O [LDW] (H-Leu-Asp-Trp-OH)
328 µM | CC(C)C[C@H](N)C(=O)NCC(=O)N[C@@H](CCC(=O)O)C(=O)N[C@@H](Cc1c[nH]c2ccccc12)C(=O)O [LGEW] (H-LGEW-OH)
> 2230 µM | CC(C)C[C@H](N)C(=O)NCC(=O)N1CCC[C@H]1C(=O)N[C@@H](Cc1ccc(O)cc1)C(=O)O [LGPY] (H-LGPY-OH)
236 µM | CC(C)C[C@H](NC(=O)[C@@H](N)CC(N)=O)C(=O)NCC(=O)N[C@@H](CCC(=O)O)C(=O)N[C@@H](Cc1c[nH]c2ccccc12)C(=O)O [NLGEW] (H-NLGEW-OH)
184 µM | N=C(N)NCCC[C@H](NC(=O)[C@H](CCC(=O)O)NC(=O)[C@H](Cc1ccc(O)cc1)NC(=O)[C@@H](N)CC(N)=O)C(=O)O [NYER] (H-NYER-OH)
4.24 µM | CC(C)C[C@H](NC(=O)[C@@H](N)CCC(N)=O)C(=O)N[C@@H](CCC(N)=O)C(=O)N[C@@H](Cc1ccccc1)C(=O)N1CCC[C@H]1C(=O)N[C@H](C(=O)NCC(=O)N[C@@H](CCCNC(=N)N)C(=O)O)C(C)C [QLQFPVGR] (H-QLQFPVGR-OH)
302 µM | CC(C)[C@H](N)C(=O)N[C@@H](C)C(=O)N[C@@H](CCCNC(=N)N)C(=O)O [VAR] (H-Val-Ala-Arg-OH)
29.6 µM | CC(C)C[C@H](NC(=O)CNC(=O)[C@@H]1CCCN1C(=O)[C@@H](NC(=O)[C@@H](N)C(C)C)[C@@H](C)O)C(=O)N[C@@H](CCC(N)=O)C(=O)N[C@@H](Cc1ccc(O)cc1)C(=O)O [VTPGLQY] (H-VTPGLQY-OH)
